Columns and labels:
[1] = target: T1, apicoplast tryptophanyl-tRNA synthetase (TrpRS^api, PF3D7_1251700) (Plasmodium falciparum, UniProt A0A144A140); assay: radiolabelled tryptophan tRNA aminoacylation assay with purified recombinant enzyme, […] indolmycin; assay type: biochemical
T1 sequence (A0A144A140 61-559): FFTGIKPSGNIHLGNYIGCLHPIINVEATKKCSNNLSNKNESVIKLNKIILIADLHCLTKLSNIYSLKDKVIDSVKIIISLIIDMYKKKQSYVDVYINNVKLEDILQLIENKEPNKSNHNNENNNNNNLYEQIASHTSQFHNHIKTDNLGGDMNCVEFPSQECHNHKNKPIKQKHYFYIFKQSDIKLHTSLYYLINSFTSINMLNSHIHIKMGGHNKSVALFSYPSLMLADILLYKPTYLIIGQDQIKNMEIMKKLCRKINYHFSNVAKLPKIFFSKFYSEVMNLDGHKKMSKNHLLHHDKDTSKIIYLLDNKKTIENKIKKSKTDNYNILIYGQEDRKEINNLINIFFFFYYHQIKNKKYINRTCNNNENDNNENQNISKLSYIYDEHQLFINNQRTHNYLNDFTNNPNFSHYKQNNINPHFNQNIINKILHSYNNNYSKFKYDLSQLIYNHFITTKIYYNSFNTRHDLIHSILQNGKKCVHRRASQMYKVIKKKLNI

[2] = substrate: N[C@@H](Cc1c[nH]c2ccccc12)C(=O)O; assay: steady-state aminoacylation kinetics with purified enzyme (apparent Km); assay type: biochemical, Plasmodium falciparum; conditions: ATP, Mg2+
[3] = substrate: Nc1ncnc2c1ncn2[C@@H]1O[C@H](COP(=O)(O)OP(=O)(O)OP(=O)(O)O)[C@@H](O)[C@H]1O; assay: as above; assay type: biochemical, Plasmodium falciparum; conditions: Mg2+

CNC1=NC(=O)[C@H]([C@H](C)c2c[nH]c3ccccc23)O1 [indolmycin]
radiolabelled tryptophan tRNA aminoacylation assay with purified recombinant enz [1]: at higher concentrations of indolmycin, tRNA^trp formation by TrpRS^api was reduced to background levels

B1: apicoplast tryptophanyl-tRNA synthetase (TrpRS^api, PF3D7_1251700) (Plasmodium falciparum 3D7) (protein)
chain: T1 sequence (A0A144A140 61-559)
Km [2]: 5.3 ± 1.2 µM | Vmax [2]: 0.029 µmol/min

B2: cytosolic tryptophanyl-tRNA synthetase (TrpRS^cyt, PF3D7_1336900) (Plasmodium falciparum 3D7) (protein)
chain: KDVTPWDVNINNEEGINYNKLIKEFGCSKITENHIKRIEKLTNSKAHHFIRRGIFFSHRDLDFLLNYYEQHKCFYIYTGRGPSSLSMHLGHLIPFYFCKYLQEAFNVPLVIQLSDDEKYLFNQNYSLEYINTLTNENVKDIISVGLNPELTFIFKNTEYAGYLYPTVLSIHKKTTLNQSMNVFGFNHSDNIGKISYPSFQIAPCFSQCFPNFLGKNIPCLVPQGIDQDPYFRLSRDIAVKMALHKPVVVHSVFMPGLQGVNSKMSSTKKKKDDNGKSNSTFDHNNSVIFLTDTPEQIKNKINKYAFSGGGTTIQEHREKGGNLDKDISYQYLRYLLEDDNKLNEIGEKYKKGEMLSGEIKKILIDVLTELVLKHQEKKKSLTDEEISYFFDPNKPSLQKFKNM
Km [3]: 622 ± 0.3 µM | Vmax [3]: 0.292 µmol/min | Km [2]: 15.6 ± 0.6 µM | Vmax [2]: 0.077 µmol/min

Reference: article PMC4899734, “Selective inhibition of apicoplast tryptophanyl-tRNA synthetase causes delayed death in Plasmodium falciparum” (Scientific Reports, 2016)
